The results in this text go back to paper PMC2701625.

The target of the assay is purified human hsp90 (human) (UniProt P07900). The assay is described as follows: cross-linking.

As to “purified human hsp90 (from UniProt P07900 1-732) (natural protein)”, the stoichiometry N – broadly, the number of molecules, sites or subunits per partner or assembly – is 2.
